Reference: publication PMC3912200, “Structural and Functional Characterization of Cargo-Binding Sites on the μ4-Subunit of Adaptor Protein Complex 4” (PLoS ONE, 2014)

Tested on: APP-GFP
Experiment: Distribution of APP-GFP in H4 neuroglioma cells
Assay type: cell-based, human
Conditions: untagged; 36 h; APP-GFP F615P/D664A; TGN46, EEA1 staining
Description: H4 human neuroglioma or MDA-MB-231 human mammary gland epithelial cells obtained from the American Type Culture Collection (Manassas, VA) were maintained in DMEM (H4) or DMEM/F12 (MDA-MB-231) supplemented with 10% (v/v) fetal bovine serum (FBS), 100 U/ml penicillin and 100 µg/ml streptomycin (Life Technologies). Transfections were carried out using Lipofectamine 2000 (Life Technologies) for 1 h at 37°C in the absence of FBS, and cells were analyzed 16, 24 or up to 36-h after transfection, for which we observed no notorious signs of loss in cell viability. SDS-PAGE, immunoblotting, and immunoprecipitation were performed as described. […]
Indirect immunofluorescence staining of fixed, permeabilized cells was performed as previously described, using sheep polyclonal antibody anti-TGN46 (Serotec), and mouse monoclonal antibody anti-EEA1 (BD Biosciences) or rabbit polyclonal antibody anti-EEA1 (Santa Cruz Biotechnology), followed by the secondary antibodies Alexa-647–conjugated donkey anti-mouse IgG, Alexa-594–conjugated donkey anti-rabbit IgG, or Alexa-594– or -647–conjugated donkey anti-sheep IgG (Life Technologies). […] Quantitative analysis of colocalization was performed as we previously described, with minor modifications. […]

B1: µ4-F255A: untagged full-length μ4-F255A, overexpressed (protein, UniProt O00189 1-453, looked up, variant F255A)
chain: MISQFFILSSKGDPLIYKDFRGDSGGRDVAELFYRKLTGLPGDESPVVMHHHGRHFIHIRHSGLYLVVTTSENVSPFSLLELLSRLATLLGDYCGSLGEGTISRNVALVYELLDEVLDYGYVQTTSTEMLRNFIQTEAVVSKPFSLFDLSSVGLFGAETQQSKVAPSSAASRPVLSSRSDQSQKNEVFLDVVERLSVLIASNGSLLKVDVQGEIRLKSFLPSGSEMRIGLTEEFCVGKSELRGYGPGIRVDEVSAHSSVNLDEFESHRILRLQPPQGELTVMRYQLSDDLPSPLPFRLFPSVQWDRGSGRLQVYLKLRCDLLSKSQALNVRLHLPLPRGVVSLSQELSSPEQKAELAEGALRWDLPRVQGGSQLSGLFQMDVPGPPGPPSHGLSTSASPLGLGPASLSFELPRHTCSGLQVRFLRLAFRPCGNANPHKWVRHLSHSDAYVIRI
modifications: full-length
notes: untagged full-length μ4-F255A, overexpressed
APP redistribution (figure title): APP redistributes from endosomes to the TGN
